What was measured:
[1] = target: T1, PD-L1 on the surface of CHO-PD-L1 cells (UniProt Q9NZQ7 19-290, limits assumed); experiment: flow cytometry on CHO-PD-L1 cells, anti-human IgG PE, MFI fold, ng/ml is the unit of the concentration axis
T1 construct: whole, on cells; also called CHO-PD-L1 cells (Nanjing Yongshan Biotechnology); CHO cell line (GenScript, Cat. M00613) stably transfected with PD-L1
Protocol: A gradient concentration of antibodies to be detected (final concentration of antibody: 10000 ng/ml-0.1 ng/ml, 10-foldserial dilution) were incubated with CHO-PD-L1 cells (Nanjing Yongshan Biotechnology Co., Ltd., 10⁵ cells/well) with high expression of PD-L1 on the cell surface at 4° C. ° C. for 30min. After incubation, 1:250 diluted anti-human IgG PE fluorescent antibody (eBioscience, Cat. 12-4998-8) was added, and incubated at 4° C. for 30 min. The fluorescent antibody specifically bound to the Fc fragment of the antibody to be detected. The fluorescent intensity of PE was detected by FACS, and the ability of the antibody to be detected to bind to PD-L1 protein highly expressed on the cell surface was analyzed. […] MFI fold=MFI value of the experimental group/MFI value of the control group without drugs.

[2] = target: T2, recombinant human PD-L1-His (Novoprotein, Cat. 315) (human, UniProt Q9NZQ7 19-239); experiment: SPR, Biacore T200, antibody captured, PD-L1-His injected, 1:1 model, 25 C
T2 construct: Bought protein; also called human PD-L1 recombinant protein; human PDL1 protein; not shown: His tag
T2 sequence (Q9NZQ7 19-239 limits assumed): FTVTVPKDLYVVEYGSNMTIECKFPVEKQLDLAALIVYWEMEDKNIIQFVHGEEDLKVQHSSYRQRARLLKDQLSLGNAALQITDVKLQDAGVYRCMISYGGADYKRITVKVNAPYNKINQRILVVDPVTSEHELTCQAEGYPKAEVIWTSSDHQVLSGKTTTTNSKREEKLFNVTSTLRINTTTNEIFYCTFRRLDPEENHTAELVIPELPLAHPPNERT
Protocol: (§1) Biacore T200 (GE Healthcare) was used to determine binding affinity of the PD-L1 antibody to the human and cynomolgus monkey PD-L1-His proteins. Anti-human IgG Fc (Genway, Cat. GWB-20A705) was immobilized on CM5 chip (GE Healthcare, Cat. BR-1005-30) at 25° C. Anti-human Fc (Genway, Cat. GWB-20A705) was diluted to […] with Acetate pH5.0 (GE Healthcare, BR-1003-51). The Amine method in the Immobilization method was used to immobilize. Alternatively, a commercially available Protein A (GE Healthcare, Cat. 29127556) chip was used for detection. […] In each cycle, the antibody to be tested was captured on the fixed CM5 chip, then injected with recombinant human PD-L1-His (Novoprotein, Cat. 315) and cynomolgus monkey PD-L1-His protein (Sino Biological, Cat. 90251-CO8H), and finally regenerated with Glycine pH1.5. The mobile phase was HBS-EP+Buffer (GE Healthcare, Cat. BR-1006-69), the flow rate was 30 μL/min, and the binding time was 300 seconds. The regeneration flow rate was 30 μL/min and the time was 30 seconds. Using Biacore T200 evaluation software (version 3.0), a 1:1 binding model was used to analyze the experimental data, fit the equilibrium dissociation constant KD of the antibody and antigen, and determine the binding rate constant Ka and dissociation rate constant Kd.

[3] = target: T3, cynomolgus monkey PD-L1-His protein (Sino Biological, Cat. 90251-CO8H) (cynomolgus monkey, UniProt G7PSE7 19-238); experiment: as above
T3 construct: Bought protein; also called cynomolgus monkey PD-L1 recombinant protein
T3 sequence (G7PSE7 entry or part of it limits assumed): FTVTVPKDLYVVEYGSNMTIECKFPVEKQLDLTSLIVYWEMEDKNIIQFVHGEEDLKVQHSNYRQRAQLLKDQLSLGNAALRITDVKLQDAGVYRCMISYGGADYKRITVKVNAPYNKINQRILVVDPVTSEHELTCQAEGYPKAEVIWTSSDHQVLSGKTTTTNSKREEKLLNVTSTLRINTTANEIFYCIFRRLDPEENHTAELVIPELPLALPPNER
Protocol: as §1

[4] = target: T4, recombinant human PD-L1 protein (Sino Biological, Cat. 10084-H05H) (human, UniProt Q9NZQ7 19-239); experiment: competitive ELISA: coated human PD-L1 protein, antibody titrated together with human PD-1-His, bound PD-1-His detected with HRP anti-His; panel A experiment (the text prints only the panel B value)
T4 construct: also called PD-L1-mFc; human PD-L1 protein fused with mouse Fc
T4 sequence (Q9NZQ7 19-239 limits assumed): as the sequence (Q9NZQ7 19-239 limits assumed) above
Protocol: (§2) The recombinant human PD-L1 protein (Sino Biological, Cat. 10084-H05H) was diluted with carbonate buffer and added to a 96-well plate at a final concentration of […]. […] Then HRP-labeled anti-His tag antibody (MBL, Cat. D291-7) was added, and color development was performed with TMB. After termination with 1M sulfuric acid, OD values (dual wavelength 450 nm-630 nm) were read. The competitive binding curve of the test antibody can be drawn by matching the antibody concentration with the OD value to calculate the IC50 value.

[5] = target: T4, recombinant human PD-L1 protein (Sino …); experiment: competitive ELISA: PD-L1 coated, antibody titrated against PD-1-His, anti-His-HRP
Protocol: as §2

[6] = target: T2, recombinant human PD-L1-His …; experiment: SPR, Biacore T200, antibody captured, human PD-L1-His injected, 1:1 model, 25 C
Protocol: as §1

T1 sequence (Q9NZQ7 19-290 limits assumed): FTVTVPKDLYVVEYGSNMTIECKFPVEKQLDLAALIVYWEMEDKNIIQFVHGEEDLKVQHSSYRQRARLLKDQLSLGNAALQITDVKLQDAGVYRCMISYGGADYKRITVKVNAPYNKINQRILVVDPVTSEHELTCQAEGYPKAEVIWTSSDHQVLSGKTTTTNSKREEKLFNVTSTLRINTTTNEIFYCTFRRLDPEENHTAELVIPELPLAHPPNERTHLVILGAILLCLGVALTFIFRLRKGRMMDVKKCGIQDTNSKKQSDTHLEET

EC50 [1]: 0.0235 mg/L | Kd [2]: 0.291 nM | Kd [3]: 0.375 nM | IC50 [4]: 0.14 mg/L | IC50 [5]: 0.221 mg/L | Kd [6]: 0.291 nM | koff [6]: 0.000233 s⁻¹ | kon [6]: 802000 M⁻¹ s⁻¹
B1: PDL1-156 (antibody, V domains shown)
VH: EVQLQESGPELVKPGASVKISCKASGYTFTDYYMNWVRQSHGKSLEWIGDINPNNGDTSYNQKFKGKATLTVDKSSSTAYMDLRSLTSEDSAVYYCASSVMDYWGQGTTVTVSS
VL: DIVLTQSPALMSASPGEKVTMTCSASSSVNYVYWYQQKPRSSPKPWIYLTFNLASGVPARFSGSGSGTSYSLTISSMEAEDAATYYCQQWSSNPLTFGAGTKLEIK
